Reference: IntAct's records for PubMed 17699623

B1: Protein BZR1 homolog 1 (Oryza sativa subsp. japonica (Rice)), Q7XI96 (parent)
chain: MTSGAAAAGRTPTWKERENNKRRERRRRAIAAKIFTGLRALGNYNLPKHCDNNEVLKALCREAGWVVEDDGTTYRKGCKPPPSSAGGASVGMSPCSSTQLLSAPSSSFPSPVPSYHASPASSSFPSPSRIDNPSASCLLPFLRGLPNLPPLRVSSSAPVTPPLSSPTASRPPKIRKPDWDVDPFRHPFFAVSAPASPTRGRRLEHPDTIPECDESDVSTVDSGRWISFQMATTAPTSPTYNLVNPGASTSNSMEIEGTAGRGGAEFEFDKGRVTPWEGERIHEVAAEELELTLGVGAK
partner: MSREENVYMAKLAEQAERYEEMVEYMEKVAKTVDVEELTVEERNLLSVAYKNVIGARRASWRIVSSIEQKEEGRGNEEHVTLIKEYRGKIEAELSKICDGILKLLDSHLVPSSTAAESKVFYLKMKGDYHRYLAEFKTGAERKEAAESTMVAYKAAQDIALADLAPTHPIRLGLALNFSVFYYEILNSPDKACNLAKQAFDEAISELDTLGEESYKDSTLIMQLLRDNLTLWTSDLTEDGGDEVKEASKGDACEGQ

Variants of: B1
Conditions: with 14333_orysj GF14C

effect of a mutation on the interaction | Variant
disrupting interaction | S156G
